Biological target: T1, Amyloid-β 42 peptide (UniProt P05067 672-713)
T1 construct: Amyloid-β peptide 1-42 (Aβ42), the cut product of the amyloid precursor protein; numbers count on: the Aβ peptide; For GCI it was immobilised on a polycarboxylate chip from Na acetate pH 4.5; also called Aβ42; Aβ
Experiment: grating-coupled interferometry (GCI); Creoptix WAVE; Aβ42 immobilised on a 4PCH chip (1910±40 pg/mm^2); analytes injected as single-cycle 1:2 dilution series in PBS, 0.005 % Tween 20, 1 % DMSO, 0.2 mg/ml BSA; 25 °C; 100 μl/min; mass transport binding model with bulk correction
Details: both partners purified

T1 sequence (P05067 672-713): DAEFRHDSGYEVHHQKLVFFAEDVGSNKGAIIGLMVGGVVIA

Binder | Kd | koff | kon
Ac-GKPGKLVFF-NH2 (not fully specified (residue 2); also: porphyrin as Zn(II) complex, designed N-terminal stretch of Ac-GK(N3)PGKLVFF-NH2; the K is the azidolysine that carries the porphyrin; hydrophobic core Aβ16-20 (KLVFF) of amyloid-β; numbers count on: the Aβ peptide; MALDI-TOF (M+H)+ 1939.43; calcd. for C103H119ZnN22O13 1938.60; Structure drawn in Scheme 1 and Scheme 3; source: synthetic: Ph-Pep metalated with Zn(CH3COO)2, purified by RP-HPLC) [zinc porphyrin-peptide conjugate Zn-Ph-Pep] | 46 ± 6 µM | 0.002 s⁻¹ | 110 M⁻¹ s⁻¹
Ac-GKPGKLVFF-NH2 (not fully specified (residue 2), designed N-terminal stretch of Ac-GK(N3)PGKLVFF-NH2; the K is the azidolysine that carries the porphyrin; hydrophobic core Aβ16-20 (KLVFF) of amyloid-β; numbers count on: the Aβ peptide; MALDI-TOF (M+H)+ 1876.12; calcd. for C103H121N22O13 1875.24; Structure drawn in Scheme 1 and Scheme 3; source: synthetic peptide (MW-SPPS), clicked on resin to Pra-OMe (CuAAC), porphyrin coupled on resin, cleaved …) [unmetalated porphyrin-peptide conjugate Ph-Pep] | 60 ± 1 µM | 0.0819 s⁻¹ | 1370 M⁻¹ s⁻¹
Ac-GKPGKLVFF-NH2 (not fully specified (residue 2); also: porphyrin as Cu(II) complex, designed N-terminal stretch of Ac-GK(N3)PGKLVFF-NH2; the K is the azidolysine that carries the porphyrin; hydrophobic core Aβ16-20 (KLVFF) of amyloid-β; numbers count on: the Aβ peptide; MALDI-TOF (M+H)+ 1937.73; calcd. for C103H118CuN22O13 1936.77; Structure drawn in Scheme 1; source: synthetic peptide (MW-SPPS), clicked in solution to Cu-Ph-Pra-OMe (CuAAC), purified by preparative HPLC) [copper porphyrin-peptide conjugate Cu-Ph-Pep] | 44 ± 6 µM | 0.0931 s⁻¹ | 2100 M⁻¹ s⁻¹
